According to FireProtDB (doi:10.1016/s0167-4838(98)00243-x):
Values joined by “and” are separate entries in the source; they are usually repeats but may differ in a detail not shown here. Equal entries are not always repeated.

B1: Chitosanase, P33665 (parent)
chain: MHSQHRTARIALAVVLTAIPASLATAGVGYASTQASTAVKAGAGLDDPHKKEIAMELVSSAENSSLDWKAQYKYIEDIGDGRGYTGGIIGFCSGTGDMLELVQHYTDLEPGNILAKYLPALKKVNGSASHSGLGTPFTKDWATAAKDTVFQQAQNDERDRVYFDPAVSQAKADGLRALGQFAYYDAIVMHGPGNDPTSFGGIRKTAMKKARTPAQGGDETTYLNAFLDARKAAMLTEAAHDDTSRVDTEQRVFLKAGNLDLNPPLKWKTYGDPYVINS

Variants of: B1
Conditions: Streptomyces sp. (strain N174); pH 7; 42.7 °C; Thermal; CD; sodium phosphate 50 mM; transition: 3; reversible: yes(68%); structure 1CHK; whole UniProt chain shown

Variant	ddG of mutation (higher = less stable) [kcal/mol]
W68F W141F	5.8

Same assay, conditions: Streptomyces sp. (strain N174); pH 7; 43.2 °C; Thermal; Fluorescence; sodium phosphate 50 mM; reversible: yes(80%); structure 1CHK; whole UniProt chain shown

Variant	ddG of mutation (higher = less stable) [kcal/mol]
W68F W141F	8.03

Same assay, conditions: Streptomyces sp. (strain N174); pH 7; 52.2 °C; Thermal; CD; sodium phosphate 50 mM; transition: 3; reversible: yes(68%); structure 1CHK; whole UniProt chain shown

Variant	ddG of mutation (higher = less stable) [kcal/mol]
W68F W141F	1.51

Same assay, conditions: Streptomyces sp. (strain N174); pH 7; Thermal; CD; sodium phosphate 50 mM; transition: 3; reversible: yes(68%); structure 1CHK; whole UniProt chain shown

Variant	change of melting temperature, mutant - wild type (higher = more stable)	unfolding enthalpy (van 't Hoff)
W68F W141F	-11.4 °C and -8 °C	155 kcal/mol and 60 kcal/mol

Same assay, conditions: Streptomyces sp. (strain N174); pH 7; Thermal; Fluorescence; sodium phosphate 50 mM; reversible: yes(80%); structure 1CHK; whole UniProt chain shown

Variant	Tm [°C]	change of melting temperature, mutant - wild type (higher = more stable) [°C]	unfolding enthalpy (van 't Hoff) [kcal/mol]
W68F W141F	31.2	-12	204

Same assay, conditions: Streptomyces sp. (strain N174); pH 7; 42.7 °C; Thermal; CD; sodium phosphate 50 mM; transition: 3; reversible: yes(77%); structure 1CHK; whole UniProt chain shown

Variant	ddG of mutation (higher = less stable) [kcal/mol]
W68F	3.56

Same assay, conditions: Streptomyces sp. (strain N174); pH 7; 43.2 °C; Thermal; Fluorescence; sodium phosphate 50 mM; reversible: yes(75%); structure 1CHK; whole UniProt chain shown

Variant	ddG of mutation (higher = less stable) [kcal/mol]
W68F	4.43

Same assay, conditions: Streptomyces sp. (strain N174); pH 7; 52.2 °C; Thermal; CD; sodium phosphate 50 mM; transition: 3; reversible: yes(77%); structure 1CHK; whole UniProt chain shown

Variant	ddG of mutation (higher = less stable) [kcal/mol]
W68F	1.76

Same assay, conditions: Streptomyces sp. (strain N174); pH 7; Thermal; CD; sodium phosphate 50 mM; transition: 3; reversible: yes(77%); structure 1CHK; whole UniProt chain shown

Variant	Tm [°C]	change of melting temperature, mutant - wild type (higher = more stable) [°C]	unfolding enthalpy (van 't Hoff) [kcal/mol]
W68F	45.2	-7	80

Same assay, conditions: Streptomyces sp. (strain N174); pH 7; Thermal; Fluorescence; sodium phosphate 50 mM; reversible: yes(75%); structure 1CHK; whole UniProt chain shown

Variant	Tm [°C]	change of melting temperature, mutant - wild type (higher = more stable) [°C]	unfolding enthalpy (van 't Hoff) [kcal/mol]
W68F	36.2	-7	196

Same assay, conditions: Streptomyces sp. (strain N174); pH 7; 42.7 °C; Thermal; CD; sodium phosphate 50 mM; transition: 3; reversible: yes(79%); structure 1CHK; whole UniProt chain shown

Variant	ddG of mutation (higher = less stable) [kcal/mol]
W267F	2.97
W141F	3.91

Same assay, conditions: Streptomyces sp. (strain N174); pH 7; 43.2 °C; Thermal; Fluorescence; sodium phosphate 50 mM; reversible: yes(81%); structure 1CHK; whole UniProt chain shown

Variant	ddG of mutation (higher = less stable) [kcal/mol]
W267F	2.51

Same assay, conditions: Streptomyces sp. (strain N174); pH 7; 52.2 °C; Thermal; CD; sodium phosphate 50 mM; transition: 3; reversible: yes(79%); structure 1CHK; whole UniProt chain shown

Variant	ddG of mutation (higher = less stable) [kcal/mol]
W267F	1.31
W141F	1.89

Same assay, conditions: Streptomyces sp. (strain N174); pH 7; Thermal; CD; sodium phosphate 50 mM; transition: 3; reversible: yes(79%); structure 1CHK; whole UniProt chain shown

Variant	change of melting temperature, mutant - wild type (higher = more stable)	unfolding enthalpy (van 't Hoff)
W267F	-6.8 °C and -6.4 °C	135 kcal/mol and 65 kcal/mol
W141F	-7.1 °C and -7.5 °C	170 kcal/mol and 80 kcal/mol

Same assay, conditions: Streptomyces sp. (strain N174); pH 7; Thermal; Fluorescence; sodium phosphate 50 mM; reversible: yes(81%); structure 1CHK; whole UniProt chain shown

Variant	Tm [°C]	change of melting temperature, mutant - wild type (higher = more stable) [°C]	unfolding enthalpy (van 't Hoff) [kcal/mol]
W267F	37.3	-5.9	132

Same assay, conditions: Streptomyces sp. (strain N174); pH 7; 43.2 °C; Thermal; Fluorescence; sodium phosphate 50 mM; reversible: yes(77%); structure 1CHK; whole UniProt chain shown

Variant	ddG of mutation (higher = less stable) [kcal/mol]
W141F	4.27
